Here are results for 28 molecules from patent US6403764.

Assay [1] deals with T1, human IGFBP-1 (human, UniProt P08833 26-259).
T1 construct: mature; Secreted recombinant protein; also called IGFBP-I
T1 sequence (looked up): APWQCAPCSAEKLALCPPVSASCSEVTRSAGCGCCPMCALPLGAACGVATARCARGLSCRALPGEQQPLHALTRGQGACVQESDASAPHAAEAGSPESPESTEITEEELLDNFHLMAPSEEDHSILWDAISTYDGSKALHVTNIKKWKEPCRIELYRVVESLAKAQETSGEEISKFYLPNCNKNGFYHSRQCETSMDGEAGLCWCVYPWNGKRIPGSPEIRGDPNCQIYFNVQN
Put plainly: competitive phage ELISA; IC50mut/IC50 G1S-A70V.

The target in assay [2] is T2, recombinant human IGFBP-3 (human, UniProt P17936 28-291).
T2 construct: mature; Secreted recombinant protein
Put plainly: competitive phage ELISA; IC50mut/IC50 G1S-A70V.

In assay [3] the target is T1, human IGFBP-1. In words: phage ELISA value repeated from Table I; IC50mut/IC50 G1S-A70V.
The target in assay [4] is T2, recombinant human IGFBP-3. The assay is described as above.
For assay [5], the target named is T1, human IGFBP-1. In words: competitive phage ELISA. The procedure: (§1) Phage particles were harvested and resuspended in PBS buffer as described in Lowman, H. B., "Phage Display of Peptide Libraries on Protein Scaffolds," in Cabilly, S. (ed.), *Combinatorial Peptide Library Protocols* (Humana Press Inc.: Totowa, N.J., 1998), pp. 249–264. Then phage concentrations were normalized to yield a maximal ELISA signal of 0.2–0.4 for each mutant (Lowman, in Cabilly, S. (ed.), supra). Threefold serial dilutions of soluble competitor were prepared on non-absorbent microtiter plates (Nunc, F, 96 wells) with binding buffer (0.5% TWEEN™ 20/PBS) containing phage at the previously-determined concentrations. The dilution range of competitor protein extended over six orders of magnitude, starting at 5 µM for IGFBP-1 and 500 nM for IGFBP-3. After blocking, the plates containing immobilized target were washed with 0.05% TWEEN™/PBS buffer and subsequently incubated with 80 µl/well of the premixed phage-competitor solutions for 1 hour at room temperature. […] Numbers in Table I represent mean±standard deviation of individually assessed $IC50$ values.
(§2) At least two different clones of every mutant were tested.

Assay [6] has as its target T3, human IGFBP-1 (human), P08833.
T3 chain: T1 sequence (looked up)
Put plainly: competitive phage ELISA; IC50mut/IC50 G1S-A70V. The settings on record: remark: other sources report otherwise.

The target is the same in assay [7]. In words: phage ELISA value repeated from Table I; IC50mut/IC50 G1S-A70V. The following applies: remark: other sources report otherwise.
Assay [8] concerns the target T2, recombinant human IGFBP-3. Put plainly: competitive phage ELISA, IGFBP-3-coated wells, soluble IGFBP-3 competitor (FIG. 3B). The procedure:
Phage particles were harvested and resuspended in PBS buffer as described in Lowman, H. B., "Phage Display of Peptide Libraries on Protein Scaffolds," in Cabilly, S. (ed.), *Combinatorial Peptide Library Protocols* (Humana Press Inc.: Totowa, N.J., 1998), pp. 249–264. Then phage concentrations were normalized to yield a maximal ELISA signal of 0.2–0.4 for each mutant (Lowman, in Cabilly, S. (ed.), supra). Threefold serial dilutions of soluble competitor were prepared on non-absorbent microtiter plates (Nunc, F, 96 wells) with binding buffer (0.5% TWEEN™ 20/PBS) containing phage at the previously-determined concentrations. The dilution range of competitor protein extended over six orders of magnitude, starting at 5 µM for IGFBP-1 and 500 nM for IGFBP-3.

For assay [9], the target named is T2, recombinant human IGFBP-3. In words: competitive phage ELISA. The procedure:
as §1, §2

Residue numbers refer to the chain shown, from its start. Names may count otherwise.

T2 sequence (P17936 28-291): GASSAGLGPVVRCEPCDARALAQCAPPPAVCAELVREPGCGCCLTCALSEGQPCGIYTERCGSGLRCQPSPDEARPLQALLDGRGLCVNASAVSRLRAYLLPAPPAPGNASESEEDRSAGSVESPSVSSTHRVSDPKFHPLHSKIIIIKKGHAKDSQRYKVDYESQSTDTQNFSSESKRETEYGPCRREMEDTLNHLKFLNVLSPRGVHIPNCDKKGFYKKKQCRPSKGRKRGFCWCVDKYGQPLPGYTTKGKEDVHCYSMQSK

Turning to “IGF-I G1S-A70V displayed on phage (from UniProt P69168 267-424) (ligand)”, the relative IC50 (with human IGFBP-1 [1]; in assay [2]; with human IGFBP-1 [3]; in assay [4]) was 1 throughout.
For the molecule “IGF-I P28A displayed on phage (from UniProt P69168 267-424) (ligand)”, the relative IC50 with human IGFBP-1 [1] stood at 1.1; in assay [2] it was 1.9.
The like results for “IGF-I S34A displayed on phage (from UniProt P69168 267-424) (ligand)” were, in that order, 1.2 and 2.2.
For “IGF-I G30A displayed on phage (from UniProt P69168 267-424) (ligand)”, in that order: 0.9 and 0.8.
For “IGF-I G32A displayed on phage (from UniProt P69168 267-424) (ligand)”, in that order: 1.3 and 1.
For “IGF-I S33A displayed on phage (from UniProt P69168 267-424) (ligand)”, the relative IC50 with human IGFBP-1 [1] came out at 1.1; in assay [2], 1.3.
The like results for “IGF-I T29A displayed on phage (from UniProt P69168 267-424) (ligand)” were, in that order, 0.9 and 1.6.
Consider “IGF-I Y31A displayed on phage (from UniProt P69168 267-424) (ligand)”, for which the values for the relative IC50 (in the assay with human IGFBP-1 [1]; in [2]) were 0.8 and 1, respectively.
The like results for “IGF-I G7A displayed on phage (from UniProt P69168 267-424) (ligand)” were, in that order, more than 100 and 6.1.
Molecule “Ala(1-3)-IGF-I displayed on phage (from UniProt P69168 267-424) (ligand)” yielded an IC50 with human IGFBP-1 [5] of 90.4 nM. For the same molecule, the relative IC50 was 11 in the assay with human IGFBP-1 [1] and 1.5 in [2].

B1: IGF-I F49A displayed on phage (ligand)
chain: SPETLCGAELVDALQFVCGDRGFYFNKPTGYGSSSRRAPQTGIVDECCARSCDLRRLEMYCAPLKPAKSV
notes: On phage; G1S-A70V template; also called IGF-F49A phage; not shown: Display partner: M13 gene III protein fragment (residues 249-406, mature count) and the junction to it
For B1, the relative IC50 in assay [6] and in assay [7] was more than 100 in each case. In addition, the “ratio of IC50 against G1S-A70V phage” value in [8] is less than 4 fold.

B2: IGF-I N26A displayed on phage (ligand)
chain: B1 chain with N26A, A49F
notes: On phage; G1S-A70V template; not shown: Display carrier: M13 gene III protein fragment (residues 249-406) and the junction to it
B2: the IC50 in the assay with human IGFBP-1 [5] was determined as 9.1 nM; in assay [9], 0.9 nM.

B3: IGF-I R55A displayed on phage (ligand)
chain: B1 chain with A49F, R55A
notes: On phage; G1S-A70V template; not shown: Display partner: M13 gene III protein fragment (residues 249-406, mature count) and the junction to it
Turning to B3, the IC50 was determined as 9 nM with human IGFBP-1 [5] and 0.66 nM in assay [9].

B4: IGF-I T4A displayed on phage (ligand, not shown: large carriers; small tags and cut ends)
chain: B1 chain with T4A, A49F
notes: On phage; G1S-A70V template
Turning to B4, the IC50 in the assay with human IGFBP-1 [5] amounted to 19.4 nM; in [9] it was 0.8 nM.

B5: IGF-I Y60A displayed on phage (ligand)
chain: B1 chain with A49F, Y60A
notes: On phage; G1S-A70V template; not shown: M13 gene III protein fragment (residues 249-406), the phage display carrier, and its junction to IGF-I
In the case of B5, the IC50 in the assay with human IGFBP-1 [5] is 6.6 nM; in [9], 0.52 nM.

B6: IGF-I Q15A displayed on phage (ligand)
chain: B1 chain with Q15A, A49F
notes: On phage; G1S-A70V template; not shown: M13 gene III fragment (residues 249-406), the display carrier, and its junction
For the molecule B6, the IC50 with human IGFBP-1 [5] is 13.9 nM; in assay [9], 1.26 nM.

B7: IGF-I Y24A displayed on phage (ligand)
chain: B1 chain with Y24A, A49F
notes: as for B2
For the molecule B7, the IC50 with human IGFBP-1 [5] turned out to be 13.3 nM; in assay [9], 2.53 nM.

B8: IGF-I S69A displayed on phage (ligand, not shown: large carriers; small tags and cut ends)
chain: B1 chain with A49F, S69A
notes: On phage; G1S-A70V template
For B8, the IC50 is 12.8 nM with human IGFBP-1 [5] and 0.71 nM in assay [9].

B9: IGF-I Q40A displayed on phage (ligand, not shown: large carriers)
chain: B1 chain with Q40A, A49F
notes: On phage; G1S-A70V template
For B9, the IC50 with human IGFBP-1 [5] is 10.2 nM; in [9], 0.56 nM.

B10: IGF-I V17A displayed on phage (ligand)
chain: B1 chain with V17A, A49F
notes: as for B6
In the case of B10, the IC50 was found to be 42.9 nM in the assay with human IGFBP-1 [5] and 3.67 nM in assay [9].

B11: IGF-I S51A displayed on phage (ligand)
chain: B1 chain with A49F, S51A
notes: as for B3
Consider B11, for which the figures for the half-maximal inhibitory concentration (IC50) (with human IGFBP-1 [5]; in [9]) were 13.4 nM and 0.65 nM, respectively.

B12: IGF-I R56A displayed on phage (ligand)
chain: B1 chain with A49F, R56A
notes: as for B3
Regarding B12, the results for the concentration for half-maximal inhibition (IC50) (with human IGFBP-1 [5]; in assay [9]) were 13.1 nM and 1 nM, respectively.

B13: IGF-I L64A displayed on phage (ligand)
chain: B1 chain with A49F, L64A
notes: as for B5
With B13, the IC50 with human IGFBP-1 [5] was determined as 12.1 nM; in assay [9] it was 0.93 nM.

B14: IGF-I R37A displayed on phage (ligand, not shown: large carriers)
chain: B1 chain with R37A, A49F
notes: On phage; G1S-A70V template
As to B14, the IC50 amounted to 12.3 nM with human IGFBP-1 [5] and 0.75 nM in assay [9].

B15: IGF-I S35A displayed on phage (ligand, not shown: large carriers)
chain: B1 chain with S35A, A49F
notes: On phage; G1S-A70V template
Consider B15, for which the IC50 worked out at 11.7 nM with human IGFBP-1 [5] and 0.47 nM in assay [9].

B16: IGF-I P66A displayed on phage (ligand)
chain: B1 chain with A49F, P66A
notes: as for B5
As for B16, the half-inhibitory concentration (IC50) with human IGFBP-1 [5] came out at 9.4 nM; in [9], 0.57 nM.

B17: IGF-I M59A displayed on phage (ligand)
chain: B1 chain with A49F, M59A
notes: as for B5
With B17, the results for the IC50 (with human IGFBP-1 [5]; in assay [9]) were 13.1 nM and 0.74 nM, respectively.

B18: IGF-I R21A displayed on phage (ligand)
chain: B1 chain with R21A, A49F
notes: as for B2
Regarding B18, the results for the half-maximal inhibitory concentration (IC50) (with human IGFBP-1 [5]; in [9]) were 7.1 nM and 0.58 nM, respectively.
